Source: the supplement of paper PMC7125110
± gives the standard error. For part of these data: Fewer inactive variants are shown than the library holds.

B1: glmS ribozyme (parent)
chain: AUAAAAGCGCCAGAACUACAGAAAUGUAGUUGACGAGGAGGAGGUUUAUCGAAUUUUCGGCGGAUGCCUCCAAA

Key:
Conditions in all cases: with glucosamine-6-phosphate
glucosamine-6-phosphate [1] = variants of: B1; test: kcat; higher = faster cleavage; RNA array
Method in brief: (§1)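 Glucosamine-6-phosphate in HEPES/KCl/Mg(OAc)2 buffer, at 40 μM to 10 mM, was flowed over barcoded ribozyme variants transcribed in situ by E. coli RNA polymerase on sequenced MiSeq chips. Tracking was through a hybridised Cy3 probe at 37 °C. kobs, kcat and KM came from exponential decay fits and weighted Michaelis–Menten fits of normalised per-tile medians.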

glucosamine-6-phosphate [2] = variants of: B1; test: KM; higher = weaker cofactor use; RNA array
Method in brief: as §1

glucosamine-6-phosphate [3] = variants of: B1; test: self-cleavage kobs at 640 uM GlcN6P; higher = faster cleavage; RNA array
Method in brief: as §1

glucosamine-6-phosphate [4] = variants of: B1; test: self-cleavage kobs at 2500 uM GlcN6P; higher = faster cleavage; RNA array
Method in brief: as §1

glucosamine-6-phosphate [5] = variants of: B1; test: self-cleavage kobs at 10000 uM GlcN6P; higher = faster cleavage; RNA array
Method in brief: as §1

glucosamine-6-phosphate [6] = variants of: B1; test: self-cleavage kobs at 40 uM GlcN6P; higher = faster cleavage; RNA array
Method in brief: as §1

glucosamine-6-phosphate [7] = variants of: B1; test: self-cleavage kobs at 160 uM GlcN6P; higher = faster cleavage; RNA array
Method in brief: as §1

Variant | kcat (glucosamine-6-phosphate [1]) [s⁻¹] | KM (glucosamine-6-phosphate [2]) [µM] | self-cleavage kobs at 640 uM GlcN6P (glucosamine-6-phosphate [3]) [s⁻¹] | self-cleavage kobs at 2500 uM GlcN6P (glucosamine-6-phosphate [4]) [s⁻¹] | self-cleavage kobs at 10000 uM GlcN6P (glucosamine-6-phosphate [5]) [s⁻¹] | self-cleavage kobs at 40 uM GlcN6P (glucosamine-6-phosphate [6]) [s⁻¹] | self-cleavage kobs at 160 uM GlcN6P (glucosamine-6-phosphate [7]) [s⁻¹]
U56C C71U | 0.000531 ± 7.9e-05 | 1380 ± 590 | 0.000219 ± 3.6e-05 | 0.000287 ± 5.6e-05 | 0.000477 ± 4.5e-05 | – | –
U54G A64G | 0.0237 ± 0.011 | – | 0.0071 ± 0.0013 | 0.0145 ± 0.0059 | 0.0227 ± 0.0052 | 0.000837 ± 0.0001 | 0.00149 ± 0.00039
U54G A64C | 0.000177 ± 1.8e-05 | 2030 ± 590 | 3.56e-05 ± 1.3e-05 | 0.000116 ± 2.4e-05 | 0.000143 ± 1.8e-05 | < 1e-05 | –
U55C U56G | 0.0112 ± 0.0051 | – | 0.00134 ± 0.00022 | 0.00329 ± 0.00056 | 0.0103 ± 0.0016 | 0.000172 ± 3.6e-05 | 0.000456 ± 6.4e-05
U56C C70A | 1.36e-05 ± 2.7e-06 | – | – | – | – | – | –
U56C C70U | 0.000177 ± 5e-06 | 1660 ± 120 | 4.77e-05 ± 6.2e-06 | 0.000111 ± 9.3e-06 | 0.00015 ± 1e-05 | – | –
U56G A64U | 9.52e-05 ± 2.5e-05 | – | – | 3.01e-05 ± 1.5e-05 | 6.57e-05 ± 1.9e-05 | – | < 1e-05
U56A C68G C71U | 4.87e-05 ± 2e-05 | – | 7.83e-05 ± 1.6e-05 | 4e-05 ± 1.6e-05 | – | – | –
U54C U69G | 6.89e-05 ± 7.2e-06 | – | 5.03e-05 ± 1.1e-05 | 7.28e-05 ± 1.1e-05 | 5.47e-05 ± 1.8e-05 | – | 3.54e-05 ± 1.6e-05
U54A U65G C67U | 0.00302 ± 0.00027 | 3900 ± 500 | 0.000434 ± 9.2e-05 | – | 0.00217 ± 0.00041 | – | 0.000109 ± 3.7e-05
U55C U57C | 9.84e-05 ± 1.9e-05 | – | – | 8.25e-05 ± 1.9e-05 | 8.27e-05 ± 1.2e-05 | – | –
U55A G66U | 0.00223 ± 0.00093 | – | 0.000355 ± 7.1e-05 | 0.00136 ± 0.00021 | 0.00195 ± 0.00029 | 7.9e-05 ± 1.3e-05 | 0.000202 ± 5.4e-05
U55G A64G | 0.0303 ± 0.0073 | 1980 ± 600 | 0.0075 ± 0.00091 | 0.0149 ± 0.0036 | 0.0308 ± 0.0088 | 0.000723 ± 0.00013 | 0.00204 ± 0.00033
U55A C58G | 0.00041 ± 0.00019 | – | 2.55e-05 ± 1.3e-05 | 4.69e-05 ± 1.5e-05 | 0.000153 ± 2.5e-05 | – | –
U55C U65A | 0.00421 ± 0.00073 | 2040 ± 540 | 0.000826 ± 0.00017 | 0.00204 ± 0.00038 | 0.00379 ± 0.00046 | 0.0001 ± 1.4e-05 | 0.00028 ± 7.3e-05
U56G C68G | 6.61e-05 ± 1e-05 | – | – | 2.78e-05 ± 1.4e-05 | 5.46e-05 ± 8.1e-06 | – | –

Variant | kcat (glucosamine-6-phosphate [1]) [s⁻¹] | KM (glucosamine-6-phosphate [2]) [µM] | self-cleavage kobs at 640 uM GlcN6P (glucosamine-6-phosphate [3]) [s⁻¹] | self-cleavage kobs at 2500 uM GlcN6P (glucosamine-6-phosphate [4]) [s⁻¹] | self-cleavage kobs at 10000 uM GlcN6P (glucosamine-6-phosphate [5]) [s⁻¹] | self-cleavage kobs at 40 uM GlcN6P (glucosamine-6-phosphate [6]) [s⁻¹] | self-cleavage kobs at 160 uM GlcN6P (glucosamine-6-phosphate [7]) [s⁻¹]
U56G C68U | 0.00243 ± 0.00033 | 1660 ± 380 | 0.000551 ± 9.7e-05 | 0.00206 ± 0.00046 | 0.00208 ± 0.00021 | 6.61e-05 ± 1.1e-05 | 0.000217 ± 4.7e-05
U56G C58G | 0.000173 ± 4.6e-06 | 1800 ± 110 | 4.42e-05 ± 1e-05 | 0.000103 ± 1.4e-05 | 0.000145 ± 2.1e-05 | – | –
U56C G66U | 0.000242 ± 4e-05 | 1500 ± 650 | 8.87e-05 ± 2e-05 | 0.000133 ± 2e-05 | 0.000231 ± 3.4e-05 | – | –
U56C C58A | 0.000232 ± 6.7e-05 | – | 3.8e-05 ± 1.6e-05 | 5.91e-05 ± 1.6e-05 | 0.000146 ± 1.9e-05 | – | –
U56C C58U | 6.39e-05 ± 2.4e-06 | 4240 ± 440 | – | 2.41e-05 ± 1.1e-05 | 4.48e-05 ± 8.5e-06 | – | –
U56C C58G | 2.76e-05 ± 8.3e-06 | – | – | – | – | – | –
U55A U65C C67A | 0.000108 ± 1.2e-05 | – | 8.44e-05 ± 2.9e-05 | 8.42e-05 ± 2.6e-05 | 0.000114 ± 2.4e-05 | – | –
U56A C61G | < 1e-05 | – | – | – | – | – | –
U54A U69G | 6.78e-05 ± 1.1e-05 | – | 9.07e-05 ± 1.8e-05 | 9.01e-05 ± 1.6e-05 | 5.62e-05 ± 8.3e-06 | – | 6.31e-05 ± 2.8e-05
U56A G66U | 0.000875 ± 6.7e-05 | 2780 ± 350 | 0.000164 ± 1.8e-05 | 0.000378 ± 4.5e-05 | 0.000712 ± 6.7e-05 | – | 5.15e-05 ± 8.2e-06
U55C A64G | 0.000719 ± 0.00011 | 1350 ± 370 | 0.000233 ± 3e-05 | 0.000568 ± 7e-05 | 0.000595 ± 6.1e-05 | 4.14e-05 ± 1.2e-05 | 6.7e-05 ± 1e-05
U55C A64U | 5.99e-05 ± 7.9e-06 | – | – | 4.69e-05 ± 8e-06 | 5.2e-05 ± 5.7e-06 | – | –
U56A C71A | 0.00492 ± 0.0022 | – | 0.000881 ± 0.0001 | 0.00216 ± 0.00042 | 0.00398 ± 0.00071 | 9.35e-05 ± 1.1e-05 | 0.000174 ± 3.4e-05
U54G C58U C67U | 4.43e-05 ± 9.6e-06 | – | – | 5.48e-05 ± 1.7e-05 | 3.78e-05 ± 1.2e-05 | – | –
U56A A64G | 0.0109 ± 0.0032 | 1640 ± 680 | 0.0025 ± 0.00037 | 0.00654 ± 0.00084 | 0.0123 ± 0.0025 | 0.00036 ± 5.4e-05 | 0.000983 ± 0.00014
U54G U55C | 0.00147 ± 0.0003 | 670 ± 280 | 0.000646 ± 9.5e-05 | 0.0012 ± 0.00027 | 0.00156 ± 0.00037 | – | 0.00036 ± 8.1e-05
